Five molecules from PMC2253824, “The Human TPR Protein TTC4 Is a Putative Hsp90 Co-Chaperone Which Interacts with CDC6 and Shows Alterations in Transformed Cells” (PLoS ONE, 2008) can be followed below.

Common to all, as to details: partners not purified
Assay [1] deals with T1, Drosophila Hsp90, two-hybrid fusion (Drosophila, UniProt P02828 1-717).
T1 construct: Hsp90 (Hsp83) of Drosophila; construct not described; Two-hybrid fusion; also called DmHsp90; source: yeast two-hybrid fusion
As to the kind of experiment: two-hybrid; TTC4 with Drosophila proteins; data not shown.

Assay [2] concerns the target T2, Drosophila Cdc6, two-hybrid fusion (Drosophila, UniProt Q9VSM9 1-662).
T2 construct: Cdc6 of Drosophila; construct not described; Two-hybrid fusion; also called DmCdc6; source: yeast two-hybrid fusion
T2 sequence (looked up): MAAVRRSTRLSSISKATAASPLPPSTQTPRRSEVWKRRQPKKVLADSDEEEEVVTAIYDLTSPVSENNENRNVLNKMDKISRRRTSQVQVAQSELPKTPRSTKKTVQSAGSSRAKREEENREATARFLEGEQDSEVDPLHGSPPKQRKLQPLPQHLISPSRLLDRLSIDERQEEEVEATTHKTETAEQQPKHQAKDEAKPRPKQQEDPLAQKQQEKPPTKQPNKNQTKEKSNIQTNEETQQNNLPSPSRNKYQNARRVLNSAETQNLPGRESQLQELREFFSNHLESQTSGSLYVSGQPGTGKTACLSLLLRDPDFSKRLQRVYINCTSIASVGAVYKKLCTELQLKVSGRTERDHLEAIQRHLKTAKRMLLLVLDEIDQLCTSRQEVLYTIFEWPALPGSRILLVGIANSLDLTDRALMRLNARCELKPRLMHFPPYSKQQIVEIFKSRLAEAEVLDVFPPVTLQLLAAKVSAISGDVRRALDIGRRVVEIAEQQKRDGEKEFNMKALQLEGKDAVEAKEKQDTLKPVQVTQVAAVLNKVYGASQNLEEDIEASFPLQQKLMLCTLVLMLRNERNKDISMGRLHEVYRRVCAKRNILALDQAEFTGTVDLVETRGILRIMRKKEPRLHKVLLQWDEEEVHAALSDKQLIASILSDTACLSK
The assay is described as above.

The target in assay [3] is T3, human HSP90 protein 1 beta (HSPCB), two-hybrid fusion in pEG202 (human, UniProt P08238 1-724).
T3 construct: HSP90 protein 1 beta (HSPCB), human full length cDNA clone from Origene, cloned in the Not1 and Xho1 sites of pEG202; also called HuHSP90; huHSP90; source: yeast two-hybrid fusion
The experiment in a line: two-hybrid; quantitative liquid beta-galactosidase assays; values as a percentage of the cdc6/TTC4 interaction.

In assay [4] the target is T4, human HSP70 protein 8 (HSPA8), two-hybrid fusion in pEG202 (human, UniProt P11142 1-646).
T4 construct: HSP70 protein 8 (HSPA8), human full length cDNA clone from Origene, cloned in the BamH1 and Xho1 sites of pEG202; also called HuHSP70; source: yeast two-hybrid fusion
The assay is described as above.

In assay [5] the target is T5, human CDC6, two-hybrid fusion in pEG202 (human, UniProt Q99741 1-560).
T5 construct: CDC6, human; clone from A. Dutta, cloned in the BamH1 and Not1 sites of pEG202; also called HuCDC6; hCDC6; source: yeast two-hybrid fusion
T5 sequence (looked up): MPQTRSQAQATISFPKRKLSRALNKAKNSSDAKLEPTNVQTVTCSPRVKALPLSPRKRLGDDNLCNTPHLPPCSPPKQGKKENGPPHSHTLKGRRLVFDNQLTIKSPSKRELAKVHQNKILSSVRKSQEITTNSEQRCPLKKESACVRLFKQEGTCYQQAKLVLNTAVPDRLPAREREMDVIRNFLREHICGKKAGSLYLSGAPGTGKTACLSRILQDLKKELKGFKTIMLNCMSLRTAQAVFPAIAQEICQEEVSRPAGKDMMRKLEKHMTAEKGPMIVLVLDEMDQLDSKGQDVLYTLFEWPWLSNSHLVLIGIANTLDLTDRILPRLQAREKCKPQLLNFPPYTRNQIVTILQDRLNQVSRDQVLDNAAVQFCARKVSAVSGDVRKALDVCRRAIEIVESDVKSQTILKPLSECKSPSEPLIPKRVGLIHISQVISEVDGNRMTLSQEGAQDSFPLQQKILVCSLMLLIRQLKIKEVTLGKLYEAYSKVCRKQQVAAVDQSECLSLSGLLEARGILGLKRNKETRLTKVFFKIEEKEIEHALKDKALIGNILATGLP
The assay is described as above.

Assay [6] has as its target T6, human DNA polymerase alpha large subunit, two-hybrid fusion (human, UniProt P09884 1-1462).
T6 construct: DNA polymerase alpha large (catalytic) subunit, human; Two-hybrid fusion; also called HDPa; source: yeast two-hybrid fusion
T6 sequence (looked up): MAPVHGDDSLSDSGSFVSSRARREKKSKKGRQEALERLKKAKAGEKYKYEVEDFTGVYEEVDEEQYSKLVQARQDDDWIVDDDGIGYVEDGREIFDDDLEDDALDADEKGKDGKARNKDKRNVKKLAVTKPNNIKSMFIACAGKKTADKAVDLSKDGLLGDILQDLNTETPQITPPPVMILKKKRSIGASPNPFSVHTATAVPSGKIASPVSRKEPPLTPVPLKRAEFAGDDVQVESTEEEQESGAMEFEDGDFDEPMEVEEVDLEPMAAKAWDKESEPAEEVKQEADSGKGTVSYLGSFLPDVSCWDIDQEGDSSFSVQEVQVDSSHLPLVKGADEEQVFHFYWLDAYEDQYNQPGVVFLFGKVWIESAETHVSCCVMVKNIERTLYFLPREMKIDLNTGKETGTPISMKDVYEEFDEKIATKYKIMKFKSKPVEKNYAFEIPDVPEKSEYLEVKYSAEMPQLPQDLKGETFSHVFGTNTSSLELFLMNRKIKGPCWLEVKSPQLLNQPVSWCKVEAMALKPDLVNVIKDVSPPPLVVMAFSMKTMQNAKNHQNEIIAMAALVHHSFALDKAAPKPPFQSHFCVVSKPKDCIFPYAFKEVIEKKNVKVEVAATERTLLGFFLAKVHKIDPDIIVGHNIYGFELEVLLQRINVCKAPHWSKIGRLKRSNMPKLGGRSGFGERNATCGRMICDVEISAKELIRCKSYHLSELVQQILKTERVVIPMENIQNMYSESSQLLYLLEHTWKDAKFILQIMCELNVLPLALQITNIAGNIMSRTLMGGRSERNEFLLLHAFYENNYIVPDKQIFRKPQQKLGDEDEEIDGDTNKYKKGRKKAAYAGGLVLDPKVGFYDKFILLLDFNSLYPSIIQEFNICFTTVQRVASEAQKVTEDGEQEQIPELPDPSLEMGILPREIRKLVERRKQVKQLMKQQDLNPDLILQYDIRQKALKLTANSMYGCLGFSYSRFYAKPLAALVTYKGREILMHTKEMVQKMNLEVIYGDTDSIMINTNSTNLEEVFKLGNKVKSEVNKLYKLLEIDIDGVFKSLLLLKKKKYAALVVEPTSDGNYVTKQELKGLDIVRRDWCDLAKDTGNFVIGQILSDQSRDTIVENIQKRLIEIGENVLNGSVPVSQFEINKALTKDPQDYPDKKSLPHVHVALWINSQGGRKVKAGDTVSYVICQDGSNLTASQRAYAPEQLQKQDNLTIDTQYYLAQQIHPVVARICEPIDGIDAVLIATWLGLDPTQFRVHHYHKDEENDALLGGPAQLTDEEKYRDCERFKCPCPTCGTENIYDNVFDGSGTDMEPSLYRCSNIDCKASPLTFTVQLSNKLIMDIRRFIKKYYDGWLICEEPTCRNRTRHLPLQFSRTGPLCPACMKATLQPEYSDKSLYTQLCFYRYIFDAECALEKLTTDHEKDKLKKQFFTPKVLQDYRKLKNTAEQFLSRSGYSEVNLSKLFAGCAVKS
Described as above.

Numbering of substitutions follows the chain as printed. Where only a bound is given, the exact number is not on record here.

T3 sequence (P08238 whole entry, the tested form may be a part): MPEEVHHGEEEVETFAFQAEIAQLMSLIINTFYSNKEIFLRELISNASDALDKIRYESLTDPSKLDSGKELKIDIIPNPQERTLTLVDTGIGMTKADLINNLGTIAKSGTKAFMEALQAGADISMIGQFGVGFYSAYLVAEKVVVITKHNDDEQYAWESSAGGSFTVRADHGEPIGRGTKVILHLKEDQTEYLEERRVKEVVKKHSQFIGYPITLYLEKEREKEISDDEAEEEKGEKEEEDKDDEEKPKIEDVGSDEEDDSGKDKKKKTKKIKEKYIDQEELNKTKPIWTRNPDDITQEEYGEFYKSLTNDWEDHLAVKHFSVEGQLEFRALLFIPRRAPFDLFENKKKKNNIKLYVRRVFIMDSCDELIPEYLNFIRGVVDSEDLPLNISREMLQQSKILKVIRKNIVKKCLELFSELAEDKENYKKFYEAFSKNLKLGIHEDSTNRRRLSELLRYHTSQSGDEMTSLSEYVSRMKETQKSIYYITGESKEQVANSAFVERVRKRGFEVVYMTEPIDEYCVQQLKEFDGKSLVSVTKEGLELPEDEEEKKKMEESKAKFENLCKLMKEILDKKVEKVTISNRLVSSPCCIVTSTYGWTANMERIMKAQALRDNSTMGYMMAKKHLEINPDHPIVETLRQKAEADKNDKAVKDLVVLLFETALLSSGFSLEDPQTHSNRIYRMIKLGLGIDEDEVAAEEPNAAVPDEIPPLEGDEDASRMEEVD
T4 sequence (P11142 whole entry, the tested form may be a part): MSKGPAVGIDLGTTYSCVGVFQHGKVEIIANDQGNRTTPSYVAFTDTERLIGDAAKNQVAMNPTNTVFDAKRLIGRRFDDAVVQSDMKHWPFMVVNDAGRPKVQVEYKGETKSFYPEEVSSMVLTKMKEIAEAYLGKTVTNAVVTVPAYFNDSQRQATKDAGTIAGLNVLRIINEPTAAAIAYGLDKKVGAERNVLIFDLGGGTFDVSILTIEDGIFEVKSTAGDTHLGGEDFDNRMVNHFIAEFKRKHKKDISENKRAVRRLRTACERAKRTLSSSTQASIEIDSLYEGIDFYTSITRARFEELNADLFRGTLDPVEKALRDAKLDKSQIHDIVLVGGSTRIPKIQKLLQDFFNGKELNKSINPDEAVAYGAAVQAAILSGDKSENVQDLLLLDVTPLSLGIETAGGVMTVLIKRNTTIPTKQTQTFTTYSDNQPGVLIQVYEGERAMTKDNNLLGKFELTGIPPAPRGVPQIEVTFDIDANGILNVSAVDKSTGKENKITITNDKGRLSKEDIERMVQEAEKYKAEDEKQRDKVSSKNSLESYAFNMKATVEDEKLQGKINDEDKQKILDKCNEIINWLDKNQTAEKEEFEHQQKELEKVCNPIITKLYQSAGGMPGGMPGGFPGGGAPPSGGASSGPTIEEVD
T1 sequence (P02828 whole entry, the tested form may be a part): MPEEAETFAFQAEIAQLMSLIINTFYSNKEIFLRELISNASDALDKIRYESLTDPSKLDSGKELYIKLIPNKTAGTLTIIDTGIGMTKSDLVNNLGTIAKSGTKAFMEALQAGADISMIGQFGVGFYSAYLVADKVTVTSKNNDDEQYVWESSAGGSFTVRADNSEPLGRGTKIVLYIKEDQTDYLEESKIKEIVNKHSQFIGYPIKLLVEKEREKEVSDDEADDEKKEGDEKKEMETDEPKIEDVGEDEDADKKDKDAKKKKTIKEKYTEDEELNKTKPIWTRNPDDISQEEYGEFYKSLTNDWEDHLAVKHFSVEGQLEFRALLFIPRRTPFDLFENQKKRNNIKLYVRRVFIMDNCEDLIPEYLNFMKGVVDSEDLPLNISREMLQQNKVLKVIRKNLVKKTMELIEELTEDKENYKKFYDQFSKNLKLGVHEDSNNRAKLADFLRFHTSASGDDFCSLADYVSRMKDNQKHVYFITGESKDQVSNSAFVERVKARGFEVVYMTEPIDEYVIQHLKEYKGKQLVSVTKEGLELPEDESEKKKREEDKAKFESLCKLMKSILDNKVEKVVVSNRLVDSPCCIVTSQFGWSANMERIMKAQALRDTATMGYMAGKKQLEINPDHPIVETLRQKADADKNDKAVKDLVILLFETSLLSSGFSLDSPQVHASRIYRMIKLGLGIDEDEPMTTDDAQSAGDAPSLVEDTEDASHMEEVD

B1: human TTC4, two-hybrid fusion in pJG4.5 (natural protein, UniProt O95801 1-387, looked up)
chain: MEQPGQDPTSDDVMDSFLEKFQSQPYRGGFHEDQWEKEFEKVPLFMSRAPSEIDPRENPDLACLQSIIFDEERSPEEQAKTYKDEGNDYFKEKDYKKAVISYTEGLKKKCADPDLNAVLYTNRAAAQYYLGNFRSALNDVTAARKLKPCHLKAIIRGALCHLELKHFAEAVNWCDEGLQIDAKEKKLLEMRAKADKLKRIEQRDVRKANLKEKKERNQNEALLQAIKARNIRLSEAACEDEDSASEGLGELFLDGLSTENPHGARLSLDGQGRLSWPVLFLYPEYAQSDFISAFHEDSRFIDHLMVMFGETPSWDLEQKYCPDNLEVYFEDEDRAELYRVPAKSTLLQVLQHQRYFVKALTPAFLVCVGSSPFCKNFLRGRKVYQIR
notes: TTC4 (tetratricopeptide repeat protein 4), human; full length gene, insert amplified and cloned in the EcoR1 and Xho sites of pJG4.5; source: yeast two-hybrid fusion
With B1, the “two-hybrid strength relative to TTC4 with huHSP90” value in assay [1] was 50%. In assay [2], the “two-hybrid strength relative to TTC4 with human CDC6” value amounted to 50%. Besides, the “two-hybrid beta-galactosidase, percentage of the cdc6/TTC4 interaction” value is 100% in assay [3], 80% in assay [4], 100% in assay [5] and less than 5% in assay [6].

B2: TTC4-125TA (42VD), two-hybrid fusion in pJG4.5 (natural protein, human, UniProt O95801 1-387, looked up)
chain: B1 chain with V42D
notes: TTC4, human, with a point mutation reported in melanoma samples, made by site-directed mutagenesis in TTC4 (pJG4.5); also called TTC4 codon 42 V to D; source: yeast two-hybrid fusion
As for B2, the “two-hybrid beta-galactosidase, percentage of the cdc6/TTC4 interaction” value amounted to 80% in assay [3], 65% in assay [4] and 95% in assay [5].

B3: TTC4-651-TA (217NK), two-hybrid fusion in pJG4.5 (natural protein, human, UniProt O95801 1-387, looked up)
chain: B1 chain with N217K
notes: TTC4, human, with a point mutation reported in melanoma samples, made by site-directed mutagenesis in TTC4 (pJG4.5); also called TTC4 codon 217 N to K; source: yeast two-hybrid fusion
In the case of B3, the “two-hybrid beta-galactosidase, percentage of the cdc6/TTC4 interaction” value was 90% in assay [3], 70% in assay [4] and less than 5% in assay [5].

B4: TTC4-201TG (67IM), two-hybrid fusion in pJG4.5 (natural protein, human, UniProt O95801 1-387, looked up)
chain: B1 chain with I67M
notes: TTC4, human, with a point mutation reported in melanoma samples, made by site-directed mutagenesis in TTC4 (pJG4.5); also called TTC4 codon 67 I to M; source: yeast two-hybrid fusion
For B4, the entries for the “two-hybrid beta-galactosidase, percentage of the cdc6/TTC4 interaction” value in assay [3], in assay [4] and in assay [5] were 90%, 70% and 95%, respectively.

B5: TTC4-230AC (77EA), two-hybrid fusion in pJG4.5 (natural protein, human, UniProt O95801 1-387, looked up)
chain: B1 chain with E77A
notes: TTC4, human, with a point mutation reported in melanoma samples, made by site-directed mutagenesis in TTC4 (pJG4.5); also called TTC4 codon 77 E to A; source: yeast two-hybrid fusion
Regarding B5, the figures for the “two-hybrid beta-galactosidase, percentage of the cdc6/TTC4 interaction” value in assay [3], in assay [4] and in assay [5] were 75%, 70% and less than 5%, respectively.
